Data from patent US20250027068.
Positions count from the first letter of the chain named.

Target: pooled human IgG

B1: PRT-15 (protein)
chain: MANQEIRYSEVTPYTITSVWTKGVTPPTNFTQGEDVFHAPYVANQGWYDITKTFNGKDDLLCGAATAGNMLHWWFDQNKDEIERYLKEHPEKQKINFNGEQMFDVKEAIDTKDSQTDSKLFEYFKDKAFPYLSTKHLGVFPDHVIDMFINGYRLSLTNHGPTPVKRGSKDPRGGIFDAVFTRGDQSKLLTSRHDFKEKNLNEISDLIKQELTEGKALGLSHTYANVRINHVINLWGADFNSNGNLKAIYVTDSDSNASIGMKKYFVGVNKAGKVAISAKEIKGDNIGAQVLGLFTLSTGQDIWEQTN
Which Enzyme Activity Endpoint Assay: Fab′2 does the source give for B1 here?
The Enzyme Activity Endpoint Assay: Fab′2 was 52 ng/µL.

What about the Enzyme Activity Endpoint Assay: Fc of the same protein?
The Enzyme Activity Endpoint Assay: Fc was 136 ng/µL.

And the Enzyme Activity Endpoint Assay: IgG?
The Enzyme Activity Endpoint Assay: IgG was 18 ng/µL.

And the Enzyme Activity Endpoint Assay: scIgG?
The Enzyme Activity Endpoint Assay: scIgG was 17 ng/µL.

B2: PRT-162 (protein)
chain: MANQEIRYSEVTPYHVTSVWTKGVTPPANFTQGEDVFHAPYVANQGWYDITKTFNGKDDLLCGAATAGNMLHWWFDQNKDQIKRYLEEHPEKQKINFNGEQMFDVKEAIDTKNSQTNSELFNYFKEKAFPYLSTKHLGVFPDHVIDMFINGYRLSLTNHGPTPVKEGSKDPRGGIFDAVFTRGDQSKLLTSRHDFKEKNLKEISDLIKKELTEGKALGLSHTYANVRINHVINLWGADFDSNGNLKAIYVTDSDSNASIGMKKYFVGVNSAGKVAISAKEIKEDNIGAQVLGLFTLSTGQDSWNQTN
With B2 as the protein, how does the Enzyme Activity Endpoint Assay (purified): Fab'2 read?
The Enzyme Activity Endpoint Assay (purified): Fab'2 was 729 ng/µL.

And the Enzyme Activity Endpoint Assay (purified): Fc?
The Enzyme Activity Endpoint Assay (purified): Fc was 196 ng/µL.

And the Enzyme Activity Endpoint Assay (purified): IgG?
The Enzyme Activity Endpoint Assay (purified): IgG was 0 ng/µL.

What about the Enzyme Activity Endpoint Assay (purified): scIgG of the same protein?
The Enzyme Activity Endpoint Assay (purified): scIgG was 0 ng/µL.

B3: PRT-165 (protein)
chain: B2 chain with K57G
Which results are given for B3?
Enzyme Activity Endpoint Assay (purified): Fab'2: 783 ng/µL; Enzyme Activity Endpoint Assay (purified): Fc: 204 ng/µL; Enzyme Activity Endpoint Assay (purified): IgG: 0 ng/µL; Enzyme Activity Endpoint Assay (purified): scIgG: 0 ng/µL

B4: PRT-166 (protein)
chain: B2 chain with T53A, N55D, K57G
What does the source list for B4?
Enzyme Activity Endpoint Assay (purified): Fab'2: 597 ng/µL; Enzyme Activity Endpoint Assay (purified): Fc: 161 ng/µL; Enzyme Activity Endpoint Assay (purified): IgG: 0 ng/µL; Enzyme Activity Endpoint Assay (purified): scIgG: 0 ng/µL

B5: PRT-164 (protein)
chain: B2 chain with T116E
B5 was tested. Which Enzyme Activity Endpoint Assay (purified): Fab'2 did it give?
The Enzyme Activity Endpoint Assay (purified): Fab'2 was 508 ng/µL.

What about the Enzyme Activity Endpoint Assay (purified): Fc of the same protein?
Its Enzyme Activity Endpoint Assay (purified): Fc is 203 ng/µL.

What about the Enzyme Activity Endpoint Assay (purified): IgG of the same protein?
Its Enzyme Activity Endpoint Assay (purified): IgG is 0 ng/µL.

What about the Enzyme Activity Endpoint Assay (purified): scIgG of the same protein?
Its Enzyme Activity Endpoint Assay (purified): scIgG is 85 ng/µL.

B6: PRT-163 (protein)
chain: B2 chain with S114D
What does the source list for B6?
Enzyme Activity Endpoint Assay (purified): Fab'2: 706 ng/µL; Enzyme Activity Endpoint Assay (purified): Fc: 184 ng/µL; Enzyme Activity Endpoint Assay (purified): IgG: 29 ng/µL; Enzyme Activity Endpoint Assay (purified): scIgG: 0 ng/µL

B7: PRT-16 (protein)
chain: MANQEIRYSEETPYHITSVWTKGVTPPTDFTQGEDVFHAPYVANQGWYDITKTFNGKDDLLCGAATAGNMLHWWFDQNKDQIERYLKKHPEKQKINFNGEQMFDVKEAIDTKDSQTDSKLFEYFKDKAFPYLSTKHLGVFPDHVLDMFINGYRLNLTNHGPTPVKEGSKDPRGGIFDAVFTRGDQSKLLTSRHDFKEKNLKEISDLIKQELQEGKALGLSHTYANVRINHVINLWGADFDSNGNLKAIYVTDSDSNASIGMKKYYVGVNAAGKVAISAKEIEEDNIGAQVLGLFTLSLGQDIWNQTN
Which Enzyme Activity Endpoint Assay: Fab′2 does the source give for B7 here?
The Enzyme Activity Endpoint Assay: Fab′2 was 0 ng/µL.

And the Enzyme Activity Endpoint Assay: Fc?
Its Enzyme Activity Endpoint Assay: Fc is 0 ng/µL.

What about the Enzyme Activity Endpoint Assay: IgG of the same protein?
Its Enzyme Activity Endpoint Assay: IgG is 151 ng/µL.

What about the Enzyme Activity Endpoint Assay: scIgG of the same protein?
Its Enzyme Activity Endpoint Assay: scIgG is 0 ng/µL.

B8: PRT-158 (protein)
chain: MANQEIRYSEVTPYHVTSVWTKGVTPPTDFIKGEDVFHAPYKAHQGWYDITKTFNGKDDLLCGAATAGNMLHWWFDQNKDQIKRYLEEHPEKQKINFNGEQMFDVKEAIDTKNHQLDSKLFEYFKEKAFPYLSTKHLGVFPDHVIDMFINGYRLSLTNHGPTPVKEGSKDPRGGIFDAVFTRGDQSKLLTSRHDFKEKNLKEISDLIKKELQEGKALGLSHTYANVRINHVINLWGADFDSNGNLKAIYVTDSDSNASIGMKKYFVGVNSAGKVAISAKEIKEDNIGAQVLGLFTLSTGQDSWNQTN
With B8 as the protein, how does the Enzyme Activity Endpoint Assay (purified): Fab'2 read?
The Enzyme Activity Endpoint Assay (purified): Fab'2 was 637 ng/µL.

And the Enzyme Activity Endpoint Assay (purified): Fc?
Its Enzyme Activity Endpoint Assay (purified): Fc is 163 ng/µL.

And the Enzyme Activity Endpoint Assay (purified): IgG?
The Enzyme Activity Endpoint Assay (purified): IgG was 0 ng/µL.

What about the Enzyme Activity Endpoint Assay (purified): scIgG of the same protein?
Its Enzyme Activity Endpoint Assay (purified): scIgG is 0 ng/µL.

B9: PRT-161 (protein)
chain: B8 chain with S18I, K22D, T25K
What does the source list for B9?
Enzyme Activity Endpoint Assay (purified): Fab'2: 669 ng/µL; Enzyme Activity Endpoint Assay (purified): Fc: 172 ng/µL; Enzyme Activity Endpoint Assay (purified): IgG: 0 ng/µL; Enzyme Activity Endpoint Assay (purified): scIgG: 0 ng/µL

B10: PRT-160 (protein)
chain: B8 chain with S18T, K22D, T25K
Which results are given for B10?
Enzyme Activity Endpoint Assay (purified): Fab'2: 642 ng/µL; Enzyme Activity Endpoint Assay (purified): Fc: 168 ng/µL; Enzyme Activity Endpoint Assay (purified): IgG: 0 ng/µL; Enzyme Activity Endpoint Assay (purified): scIgG: 0 ng/µL

B11: PRT-159 (protein)
chain: B8 chain with H44G
How did the Enzyme Activity Endpoint Assay (purified): Fab'2 turn out when B11 was run?
The Enzyme Activity Endpoint Assay (purified): Fab'2 was 637 ng/µL.

What about the Enzyme Activity Endpoint Assay (purified): Fc of the same protein?
The Enzyme Activity Endpoint Assay (purified): Fc was 184 ng/µL.

What about the Enzyme Activity Endpoint Assay (purified): IgG of the same protein?
Its Enzyme Activity Endpoint Assay (purified): IgG is 0 ng/µL.

And the Enzyme Activity Endpoint Assay (purified): scIgG?
Its Enzyme Activity Endpoint Assay (purified): scIgG is 0 ng/µL.

B12: PRT-227 (protein)
chain: MEVVEVWPYGQNPNGKTEILSQTEDSESLQRLRDIEDFQAEKKMQNVVYTKWLDGVDVKDHDFRKIVDGNIAYYATPLLNGRGFYDINKDFNRDSDKCAAAVAANMFHYWLDINRDNVDRFLRQNPEKHGIIELPDGQLKLSDFLNTYESDHGYRDKSKLFDFISNNFNGPVWTDKLLDNYINGYAYNYKYGRTIEDPTKNTSKINFFKEVFNEKILTNNHSIRNQNEFSVLLSEALYTGKAIGLSYGPAGLRHSLGHIISVWGADLDADGNVVAIYVTDSDDKKLTIGDERVGLKRYKISTDDENRLRLTAYEETHNTGGQIRGLYTLDTGKYAWADYFDKTEQTGTDQAEQLEHHHHHH
Which Enzyme Activity Endpoint Assay (purified): Fab'2 does the source give for B12 here?
The Enzyme Activity Endpoint Assay (purified): Fab'2 was 22 ng/µL.

And the Enzyme Activity Endpoint Assay (purified): Fc?
The Enzyme Activity Endpoint Assay (purified): Fc was 331 ng/µL.

And the Enzyme Activity Endpoint Assay (purified): IgG?
Its Enzyme Activity Endpoint Assay (purified): IgG is 880 ng/µL.

What about the Enzyme Activity Endpoint Assay (purified): scIgG of the same protein?
The Enzyme Activity Endpoint Assay (purified): scIgG was 492 ng/µL.

B13: PRT-228 (protein)
chain: B12 chain with V231D, Y327W
With B13 as the protein, how does the Enzyme Activity Endpoint Assay (purified): Fab'2 read?
Its Enzyme Activity Endpoint Assay (purified): Fab'2 is 195 ng/µL.

What about the Enzyme Activity Endpoint Assay (purified): Fc of the same protein?
The Enzyme Activity Endpoint Assay (purified): Fc was 583 ng/µL.

What about the Enzyme Activity Endpoint Assay (purified): IgG of the same protein?
Its Enzyme Activity Endpoint Assay (purified): IgG is 767 ng/µL.

What about the Enzyme Activity Endpoint Assay (purified): scIgG of the same protein?
Its Enzyme Activity Endpoint Assay (purified): scIgG is 557 ng/µL.

B14: PRT-14 (protein)
chain: MANQEIRYSEVTPYTVTSVWTKGVTPPADFTQGEDVFHAPYIANQGWYDITKTFNGKDDLLCGAATAGNMLHWWFDQNKEQIERYLKKHPEKQKINFNGEQMFDVKEAIDTKDSQTDSELFEYFKEKAFPYLSTKHLGVFPDHVLDMFINGYRLSLTNHGPTPVKEGSKDPRGGIFDAVFTRGDQSKLLTNRHDFKEKTLSEISDLIKKELTEGKALGLSHTYANVRINHVINLWGADFDSEGNLEAIYVTDSDSNASIGMKKYFVGVNSAGKVAISAKEIKEDNIGAQVLGLFTLSTGQDIWNQTN
Which results are given for B14?
Enzyme Activity Endpoint Assay: Fab′2: 18 ng/µL; Enzyme Activity Endpoint Assay: Fc: 94 ng/µL; Enzyme Activity Endpoint Assay: IgG: 13 ng/µL; Enzyme Activity Endpoint Assay: scIgG: 43 ng/µL

B15: PRT-17 (protein)
chain: MANQEIRYSEVTPYHITSVWTKGVTPPTNFTQGEDVFHAPYKANQGWYDITKTFNGKDDLLCGAATAGNMLHWWFDQNKEEIERYLKEHPEKQKINFNGEQMFDVKEAIDTKGSQTDSKLFNYFKDKAFPYLSTKHLGVFPDHVLDMFINGYRLSLTNHGPTPVKEQSKDPRGGIFDAVFTRGDQSKLLTSRHDFKEKNLKEISDLIKKELTEGKALGLSHTYANVRINHVINLWGADFDSEGNLEAIYVTDSDSNASIGMKKYFVGVNSAGKVAISAKEIKGDNIGAQVLGLFTLSTGQDIWEKTN
What does the source list for B15?
Enzyme Activity Endpoint Assay: Fab′2: 53 ng/µL; Enzyme Activity Endpoint Assay: Fc: 116 ng/µL; Enzyme Activity Endpoint Assay: IgG: 34 ng/µL; Enzyme Activity Endpoint Assay: scIgG: 0 ng/µL

B16: PRT-20 (protein)
chain: MANQEIRYSEATPYHITSVWTKGVTPPANFTQGEDVFHAPYVPNQGWYDITKTFNGKDDLLCGAATAGNMLHWWFDQNKDQIERYLKEHPEKQKINFNGEQMFDVKEAIDTKDSQTDSKLFNYFKEKAFPYLSTKHLGVFPDHVLDMFINGYRLSLTNHGPTPVKEQSKDPRGGIFDAVFTRGDQSTLLTSRHDFKEKTLKEISDLIKKELQEGKALGISHTYANVRINHVINLWGADFNSEGNLEAIYVTDSDSNASIGMKKYYVGVNSAGKVAISAKEIEDDNIGAQVLGLFTLSTGKDIWEQTN
Which Enzyme Activity Endpoint Assay: Fab′2 does the source give for B16 here?
Its Enzyme Activity Endpoint Assay: Fab′2 is 48 ng/µL.

What about the Enzyme Activity Endpoint Assay: Fc of the same protein?
Its Enzyme Activity Endpoint Assay: Fc is 124 ng/µL.

What about the Enzyme Activity Endpoint Assay: IgG of the same protein?
The Enzyme Activity Endpoint Assay: IgG was 15 ng/µL.

What about the Enzyme Activity Endpoint Assay: scIgG of the same protein?
The Enzyme Activity Endpoint Assay: scIgG was 13 ng/µL.

B17: PRT-18 (protein)
chain: MANQEIRYSEETPYHVTSVWTKGVTPPTNFTQGEDVFHAPYIANQGWYDITKTFNGKDDLLCGAATAGNMLHWWFDQNKEEIEKYLEEHPEKQKINFNGEQMFDVKEVIDTKDSQLDSKLFEYFKEKAFPYLSTKHLGVFPDHVIDMFINGYRLNLTNHGPTPVKEGSKDPRGGIFDAVFTRGDQSKLLTERHDFKEKTLKEISQLIKQELTEGKALGLSHTYANVRINHVINLWGADFDSEGNLEAIYVTDSDSNASIGMKKYFVGVNSAGKVAISAKEIEEDNIGAQVLGLFTLSTGQDIWEQTN
Which results are given for B17?
Enzyme Activity Endpoint Assay: Fab′2: 44 ng/µL; Enzyme Activity Endpoint Assay: Fc: 105 ng/µL; Enzyme Activity Endpoint Assay: IgG: 12 ng/µL; Enzyme Activity Endpoint Assay: scIgG: 11 ng/µL

B18: PRT-19 (protein)
chain: MANQEIRYSEESPSVVTSVWTKGVTPPANFTYGEDVFHAPYIANQGWYDITKTFNGKDDLLCGAATAGNMLHWWFDQNKDEIEAYLKKHPEKQKINFNGEQMFDVKEAIDTKDDQTNSKLFNYFKDKAFPYLSTKHLGVFPDHVLDMFINGYRLNLTNHGPTPVKEGSKDPRGGIFDAVFTRGDQSKLLTSRHDFKEKTLKEISDLIKQELTEGKALGLSHTYANVRINHVINLWGADFNSEGNLKAIYVTDSDSNASIGMKKYFVGVNAAGKVAISAKEIKDDNIGAQVLGLFTLSTGQDIWNQTN
For B18, which Enzyme Activity Endpoint Assay: Fab′2 is on record?
Its Enzyme Activity Endpoint Assay: Fab′2 is 42 ng/µL.

And the Enzyme Activity Endpoint Assay: Fc?
Its Enzyme Activity Endpoint Assay: Fc is 108 ng/µL.

What about the Enzyme Activity Endpoint Assay: IgG of the same protein?
The Enzyme Activity Endpoint Assay: IgG was 13 ng/µL.

And the Enzyme Activity Endpoint Assay: scIgG?
Its Enzyme Activity Endpoint Assay: scIgG is 13 ng/µL.
